Measured values published in article PMC12903456, “DoMYB75 coordinately regulates polysaccharide and anthocyanin biosynthesis in Dendrobium officinale”.

B1: ProCSLA3 probe (dsDNA)
DNA 1: TCACATTTATCACGTTTGAGTTCGATACCAACTTTTTTTTTTTTTTTTTGAGC
DNA 2: GCTCAAAAAAAAAAAAAAAAAGTTGGTATCGAACTCAAACGTGATAAATGTGA
B2: ProCSLA12 probe (dsDNA)
DNA 1: CCCTAAAGGTTGGAGTTGGTCACTCAACCTAACCTTAAATAATGATTCATGTTGTATTC
DNA 2: GAATACAACATGAATCATTATTTAAGGTTAGGTTGAGTGACCAACTCCAACCTTTAGGG
B3: ProCSLA9 probe (dsDNA)
DNA 1: TAAGAAACTTTGATAACTATTAGATGACCAAATTAATTCAATCATACCGTAAATAATTC
DNA 2: GAATTATTTACGGTATGATTGAATTAATTTGGTCATCTAATAGTTATCAAAGTTTCTTA

The binders below were run against MBP-DoMYB75 (Dendrobium officinale, UniProt A0A2I0X1N0 1-290) (assay: EMSA; competed by unlabeled probe; LightShift Chemiluminescent EMSA Kit (Thermo Fisher) per manufacturer; buffer, salt, pH and temperature not stated). Conditions: protein: recombinant; tags: MBP; label: biotin; blunt.
Sequence of MBP-DoMYB75 (A0A2I0X1N0 entry or part of it): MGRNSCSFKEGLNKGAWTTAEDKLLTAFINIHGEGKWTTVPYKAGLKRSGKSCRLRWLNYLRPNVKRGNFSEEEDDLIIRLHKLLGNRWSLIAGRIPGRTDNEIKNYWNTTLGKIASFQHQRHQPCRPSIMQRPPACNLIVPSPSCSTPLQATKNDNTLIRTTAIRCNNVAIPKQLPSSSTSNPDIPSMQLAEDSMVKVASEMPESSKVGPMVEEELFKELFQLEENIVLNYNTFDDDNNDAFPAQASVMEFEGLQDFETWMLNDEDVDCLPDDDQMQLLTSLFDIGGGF

Question: Does B1 bind?
Answer: binds

Question: Does B2 bind?
Answer: binds

Question: Does B3 bind?
Answer: binds
